Results on 2 proteins are retold here after paper PMC3635990, “Vpu Binds Directly to Tetherin and Displaces It from Nascent Virions” (PLoS Pathogens, 2013).

Residue numbers refer to the chain shown, from its start. Names may count otherwise.

The series deals with the molecule itself. In words: cross-linking; unfractionated whole cell lysates of the oxidised, co-transfected 293T cells of Figure 1B; non-reducing SDS-PAGE (Bio-Rad), Western blot; monomer to dimer. A general note: A western blot detects proteins with antibodies after separation by electrophoresis.

B1: Tetherin^CC/SS-I46C-HA (natural protein)
chain: MASTSYDYSRVPMEDGDKRSKLLLGIGILVLLIIVILGVPLIIFTCKANSEACRDGLRAVMECRNVTHLLQQELTEAQKGFQDVEAQAATCNHTVMALMASLDAEKAQGQKKVEELEGEITTLNHKLQDASAEVERLRRENQVLSVRIADKKYYPSSQDSS
notes: Tetherin (Bst2/CD317/HM1.24), human; also called TetherinI46C; Teth^CC/SS-I46C-HA; source: HEK293T, co-transfected, in cells and lysate
For the protein B1, the stoichiometry N (usually the number of molecules, sites or subunits per partner or assembly) came out at 2.

B2: Tetherin^CC/SS-T45C-HA (natural protein)
chain: B1 chain with T45C, C46I
notes: Tetherin (Bst2/CD317/HM1.24), human; also called TetherinT45C; source: HEK293T, co-transfected, in cells and lysate
Regarding B2, the “stoichiometry N” value is 2.
